According to the nanobody polyreactivity screen of Harvey et al. (2022):

Assay: yeast display, Sf9 membrane polyspecificity reagent, FACS + sequencing; frameworks hold sequencing errors
How it was run: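 In a synthetic yeast display library (Saccharomyces cerevisiae BJ5465), nanobody expression was induced with galactose for 36–48 hours. FACS gates were set low and high (top ~1%) using anti-HA fluorescence for expression and streptavidin fluorescence for binding of the Sf9 membrane reagent. Each polyreactivity label is drawn from the gate of origin.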

| Sequence | polyreactivity (PSR sort gate) |
| --- | --- |
| QVQLVESGGGLVQAGGSLRLSCAASGNIFPRYAMGWYRQAPGKERELVARISSGGSTDYADSVKGRFTISRDNAKNTVYLQMNSLKPEDTAVYYCAAEYYSQTVNYRRVVGYGYWGQGTQVTVSS | high polyreactivity |
| QVQLVESGGGLVQAGGSLRLSCAASGNIFPYYTLGWYRKAPGKEREWVAAITIGGSTYYADSEKGRFTISRDNAKNTVYLQMNSLKPEDTAVYYCAARSRYYDTRFEYWGQGTQVTVSS | low polyreactivity |
| QVQLVESGGGLVQAGGSLRLSCAASGNIFPYYTMGWYRQAPGKERELVAAISSSGSTYYADSVKGRFTISRDNAKNTVYLQMNSLKPEDTAVYYCAARLYPYGWYDYWGQGTQVTVSS | high polyreactivity |
| QVQLVESGGGLVQAGGSLRLSCAASGNIFRRYAMGWYREAPGKERELVAAISRGGTRTYYADSVKGRFTISRDNAKNTVYLQMNSLKPEDTAVYYCNAEVNTNYRIADYDYWGQGTQVTVSS | high polyreactivity |
| QVQLVESGGGLVQAGGSLRLSCAASGNIFRVYDMGWYRQAPGKERELVPVIRWSSGRTYYADSVKGRFTISRDNAKNTVYLQMNSLKPEDTAVYYCATKLWRVPRNSHYDSYEYWGQGTQVTVSS | high polyreactivity |
| QVQLVESGGGLVQAGGSLRLSCAASGNIFRYYAMGWYRPAPGKERELVAAISSRGGSTYYADSVKGRFTISRDNAKNTVYLQMTSLKPADTAVYYCAAGGYDVYHDPYYYWGQGTQVTVSS | low polyreactivity |
| QVQLVESGGGLVQAGGSLRLSCAASGNIFSAYAMGWYRQAPGKEREFVAAISYSGGNTYYADSVKGRFTISRDNAKNTVYLLMNSLKPEVSAVYYCAARVLNKYYRYGYWGQGTQVTVSS | high polyreactivity |
| QVQLVESGGGLVQAGGSLRLSCAASGNIFSDYAMGSYRQAPGKERELVAAISSGGNTNYADSVKGRFSISRDNAKKTVYLQMNSLKPEDTAVYYCAAFYNTTYTLLPAYSDVNYYYWGQGTQVTVSS | low polyreactivity |
| QVQLVESGGGLVQAGGSLRLSCAASGNIFSFYTMGWYRQAPGKERELVAAISWSGTSTYYADSVKGRFTISRDNAKNTVYLQMNSLKPEDTAVYYCAAERWWSGYEYWGQGTQVTVSS | high polyreactivity |
| QVQLVESGGGLVQAGGSLRLSCAASGNIFSYNAMGWYRQAPGKERELVAAITTSSGRTYYADSVKGRFTISRDNAKNTVYLQMNSLKPEDTAVYYCNRTVSRRSYRWDYDYWGQGTQVTVSS | high polyreactivity |
| QVQLVESGGGLVQAGGSLRLSCAASGNIFTGNDMGWYRQAPGKERELVAAISKRGGSTFYADSVKGRFTISRDNAKNTVYLQMNSLKPEDTEGYYCNALRRGVRDPYGYWGQGTQVTVSS | high polyreactivity |
| QVQLVESGGGLVQAGGSLRLSCAASGNIFTSYAMGWYRQAPGKERELVAAISSGGRTSYADSVKGRFTISRDNAKNTVYLQMNSLKPEDTAVYYCAAYYRRWPREYYYWGQGTQVTVSS | high polyreactivity |
| QVQLVESGGGLVQAGGSLRLSCAASGNIFTTYAMGWYRQAPGKERELVAAISRTGGRTSYADSVKGRFTISRDNAKNTVYLEMNSLKPVDTAVYYCADTLWRQSNLEYWGQGTQVTVSS | high polyreactivity |
| QVQLVESGGGLVQAGGSLRLSCAASGNIFVFYVMGWYRQAPGKERELVASISSTGNTYYADSVKGRFTISRDNAKNTVYLQMNSLKPEDTAVYYCAAEYYSIRYGPHSIEVYGMDYWGQGTQVTVSS | low polyreactivity |
| QVQLVESGGGLVQAGGSLRLSCAASGNIFVRYVMGWYRQAPGKERELVAAITTSGGSTRYADSVKGRFTISRDNAKNTVYLQMNSLKPEDTAVYYCAARFRYRHLTYGYWGQGTQVTVSS | high polyreactivity |
| QVQLVESGGGLVQAGGSLRLSCAASGNIFWRYAMGWYRQAPGKERELVAAISRRGGSTYYADSVKGRFTISRDNAKNTVYLQMNSLKPEDTAVYYCAASHSTWFSDPYGYWGQGTQVTVSS | low polyreactivity |
| QVQLVESGGGLVQAGGSLRLSCAASGNIFYIYAMGWYRQAPGKERELVASISGRGGRTYYADSVKGRFTISRDNAKNTVYLQMNSLKPEDTAVYYCAADGYRTYSEMDYWGQGTQVTVSS | high polyreactivity |
| QVQLVESGGGLVQAGGSLRLSCAASGNIFYKNNMGWYRQAPGKERELVAAISFSGGGTYYADSVKGRFTISRDNAKNTVYLQMNSLKPEDTAVYYCAAEYTYGWTYRPFDYWGQGTQVTVSS | high polyreactivity |
| QVQLVESGGGLVQAGGSLRLSCAASGNIFYNGMGWYRQAPGKERELVAAIRGSAGRTYADSVKGRFTISRDNAKNTVYLQMNILKPEDTAVYYCAAAKRYYSEMYWGQGTQVTVSS | high polyreactivity |
| QVQLVESGGGLVQAGGSLRLSCAASGNIFYPNAMGGSRQAPGKERGLVAAISSSGGSTYYADSVKGRFTISRDNAKNTVYLQINSLKPEDTAVYYCAKDRSYAYYWSPYPTGYDYWGQGTQVTVSS | low polyreactivity |
| QVQLVESGGGLVQAGGSLRLSCAASGNIFYTNAMGWYRQAPGKERELVATISRSVGSTYYADSVKGRFTISRDNAKNTVYLQMNSLKPEDTAVYYCAASRLLSALTAYSWGFNYWGQGSQVTVSS | high polyreactivity |
| QVQLVESGGGLVQAGGSLRLSCAASGNIFYVYVMGWYRQAPGKERELVAAISRGGGSTYYADSVKGRFTISRDNAKNTVSLQMNSLKPEDTAVYYCAARRGYPSGYEYWGQGTQVTVSS | high polyreactivity |

| Sequence | polyreactivity (PSR sort gate) |
| --- | --- |
| QVQLVESGGGLVQAGGSLRLSCAASGNIFYWNVMGWYRQAPGKERELVAVISNGGRTYYADSVKGRFTISRDNAKNTVYLQMNSLKPEDTAVYYCAAEYDRLSKRYDYWGQGTQVTVSS | high polyreactivity |
| QVQLVESGGGLVQAGGSLRLSCAASGNIIDANAMGWYRQAPWKERELVAAITSSGGSTYYADSVKGRFTISRDNAKNTVYLQMNSLNPEDTAVYYCAKSHAIYYWWDESWGQGTQVTVSS | low polyreactivity |
| QVQLVESGGGLVQAGGSLRLSCAASGNIIRKYAMGWYRPAPGKERELVAAITASGGRTFYADSVKGRFTISRDNAKNTVDLQMNSLKPEDTAVYYCATRDSPRTKNGYYYWGQGTQVTVSS | high polyreactivity |
| QVQLVESGGGLVQAGGSLRLSCAASGNIIRSYMGWYRQAPGKERELVASISRRGGSTYYADSVKGRFTISRDNAKNTVYLHMNSLKPEDTAVYYCARRWSWVNGVFGYYWGQGTQVSVSS | high polyreactivity |
| QVQLVESGGGLVQAGGSLRLSCAASGNILFYNSMGWYRQAPGKERELVAAISRSAGSTYYADSVKGRFTISRDNAKNTVYLQMNRLKAEDTAVYYCAAQYFRRSGYWGQGTQVTVSS | high polyreactivity |
| QVQLVESGGGLVQAGGSLRLSCAASGNILLFNAMGWYRQAPGKERELVATINQSGGRTYYADSVKGRFTISRDNAKNTVYLQMNSLKPEDTAVYYCNAPGSPVVQQPGYYWGQGTQVTVSS | low polyreactivity |
| QVQLVESGGGLVQAGGSLRLSCAASGNILRGYAMGWYRQAPGKERELVAAINRGGGSTYYADSVKGRFTISRDYAKNTVYFQMNSLKPEDTAVYYCAARYPHRGYTFDYWGQGTQVTVSS | low polyreactivity |
| QVQLVESGGGLVQAGGSLRLSCAASGNILWFNAMGWYRQAPGKERELVASISSSGGRTYYADSVKGRFTISRDNAKNTVYLQMNSLKPEDTAVYYCAAEYYYGWTYSGGLGFLGYNYWGQGTQVTVSS | low polyreactivity |
| QVQLVESGGGLVQAGGSLRLSCAASGNIRNYGLGWYRQAPGKERELVAAITVSGSRTYYADSVKGRFTISRDNAKNTVYLQMNSLKPEDTAVSYCAARGYNTLTRYDYWGQGTQVTVTS | high polyreactivity |
| QVQLVESGGGLVQAGGSLRLSCAASGNNFYINAMGSYRQAPGKERELVAAIRGGGSTYYADSVKGRFTISRDNAKNTVYLQMNSLKPEDTAVYYCAARGRRLNPQYRAFGMDYWGQGTQVTVSS | high polyreactivity |
| QVQLVESGGGLVQAGGSLRLSCAASGNSFSQYAMGWYRQAPGKERELVATISKSSGSTYYADSVKGRFTISRDNAKNTVYLQMNSLKPEDTAVYSCNAVSSDVYHHLGVLFFSTWYDYWGQGTQVTLSS | low polyreactivity |
| QVQLVESGGGLVQAGGSLRLSCAASGNTFAAYAMGWYRQAPGKEWELVAAITTSGGITYYADSVKGRFTISRDNAKNTVYLQMNSLKPEDTAVYYCAVDGGRWGQGTQVTVSS | low polyreactivity |
| QVQLVESGGGLVQAGGSLRLSCAASGNTFADYAMGWYSQAPGKERELVADLTFSGGGTYYADSVKGRFTISRDNAKNTVYLQMNSLKPEDTPVYDCNADLDSYVGDEYDHWGQGTQVTVSS | low polyreactivity |
| QVQLVESGGGLVQAGGSLRLSCAASGNTFAPYAMGWYRQAPGKERELVATISYRGGSTNYADSVKGRFTISRDNAKNTVYLQMNSLKPEDTAVYYCNARYRWVVNRYSASGGSYNYWGQGTQVTVSS | high polyreactivity |
| QVQLVESGGGLVQAGGSLRLSCAASGNTFAYNVMGWYRQAPGKERELVAAISRSGGSTYYADSVKGRFTISRDNAKNTVYLQMNSLKPEDTAVYYCAAVGRRVRPEGSYNRWGHDYWGQGTQVTVSS | high polyreactivity |
| QVQLVESGGGLVQAGGSLRLSCAASGNTFDEYAMGWYRQAPGKEREFVAAIRNTYYADSVKGRFTISRDNAKNTVYLQMNSLKPEDTAVYYCAKPSQLHPYEYWGQGTQVTVSS | low polyreactivity |
| QVQLVESGGGLVQAGGSLRLSCAASGNTFEYYTMGWYRKAPGKERELVASIDWSTTSTYYADSVKGRFTISRDNAKNTVYLQMNSLKPEDTAVYYCNTVYDYYHLGLYSGFRYHYWGQGTQGTVSS | low polyreactivity |
| QVQLVESGGGLVQAGGSLRLSCAASGNTFGHYTMGWYRQAPGKERELVAAISWDDSSTNYADSVKGRFTISRDNAKNTVYLQMNILKPEDTAVYYCAKETELRTQYPYVYDYWGQGSQVTVSS | low polyreactivity |
| QVQLVESGGGLVQAGGSLRLSCAASGNTFGPYDMGWYRQSPGKERELVAGITSGGSTYYADSVKGRFTISRDNAKNTVYLQMNSLKPEDTAVYYCAADDYLWVYWYDYWGQGTQVTVSS | high polyreactivity |
| QVQLVESGGGLVQAGGSLRLSCAASGNTFGRYAMGGYRQAPGKERELVAAISWSGGSTYSADSVKGRFTISRDNAKNSLYLQMNSLKPEDTAVYYCAANSWRGFEYWGQGTQVTVSS | high polyreactivity |
| QVQLVESGGGLVQAGGSLRLSCAASGNTFGYNAMGWYRQAPGKERELVASITWSGGSTYYADSVKGRFTISRDNAKNTVYLEMKSLKPEDTAVYYCNADVRYGRDHWGQGTQVTVSS | low polyreactivity |
